The values below come from patent publication US20240190920A1, “BECLIN 1-TARGETED STAPLED PEPTIDE AND PHARMACEUTICAL COMPOSITION” (Shenzhen Research Institute of the Hong Kong Polytechnic …, priority 2021, published 2024).

A word on the Kd: it is the constant that tells how readily two partners part at equilibrium. A higher Kd goes with lower affinity.

For test [1], the target named is T1, Beclin 1 coiled coil domain (human Beclin 1, residues 176-268) (human), Q14457. Description: ITC, compared with Tat-SP4. In general terms: In ITC the heat of successive injections is recorded.
The target of test [2] is T1, Beclin 1 coiled coil domain (human …). Description: ITC, peptide titrated into Beclin 1 coiled coil domain, 25 C, one-site model.

Bridge positions count the residues as written; N and C are the ends. Square brackets hold non-standard residues; d marks the D form. R8 = C=CCCCCCC[C@@](C)(N)C(=O)O; S5 = C=CCCC[C@](C)(N)C(=O)O

T1 sequence (Q14457 176-268 limits assumed): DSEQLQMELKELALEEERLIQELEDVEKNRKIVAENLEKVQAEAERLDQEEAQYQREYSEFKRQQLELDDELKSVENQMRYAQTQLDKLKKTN

B1: i7-01s-31 (Ac-[Tat]-VLFN(R8)[…](S5)RKV-NH2) (peptide)
peptide: Ac-YGRKKRRQRRRVLFN[R8]LVDVIK[S5]RKV-NH2
modifications: staple 16-23
SMILES: CC[C@H](C)[C@@H]1NC(=O)[C@H](C(C)C)NC(=O)[C@H](CC(=O)O)NC(=O)[C@H](C(C)C)NC(=O)[C@H](CC(C)C)NC(=O)[C@](C)(NC(=O)[C@H](CC(N)=O)NC(=O)[C@H](Cc2ccccc2)NC(=O)[C@H](CC(C)C)NC(=O)[C@@H](NC(=O)[C@H](CCCNC(=N)N)NC(=O)[C@H](CCCNC(=N)N)NC(=O)[C@H](CCCNC(=N)N)NC(=O)[C@H](CCC(N)=O)NC(=O)[C@H](CCCNC(=N)N)NC(=O)[C@H](CCCNC(=N)N)NC(=O)[C@H](CCCCN)NC(=O)[C@H](CCCCN)NC(=O)[C@H](CCCNC(=N)N)NC(=O)CNC(=O)[C@H](Cc2ccc(O)cc2)NC(C)=O)C(C)C)CCCCCCC=CCCC[C@@](C)(C(=O)N[C@@H](CCCNC(=N)N)C(=O)N[C@@H](CCCCN)C(=O)N[C@H](C(N)=O)C(C)C)NC(=O)[C@H](CCCCN)NC1=O
In test [1], B1 registered a fold stronger binding affinity than Tat-SP4 of 10 fold. In addition, the Kd in test [2] stood at 0.33 µM.

B2: i7-01s-54 (Ac-[Tat]-ALIQ(R8)[…](S5)RKR-NH2) (peptide)
peptide: Ac-YGRKKRRQRRRALIQ[R8]QEDVEK[S5]RKR-NH2
modifications: staple 16-23
SMILES: CC[C@H](C)[C@H](NC(=O)[C@H](CC(C)C)NC(=O)[C@H](C)NC(=O)[C@H](CCCNC(=N)N)NC(=O)[C@H](CCCNC(=N)N)NC(=O)[C@H](CCCNC(=N)N)NC(=O)[C@H](CCC(N)=O)NC(=O)[C@H](CCCNC(=N)N)NC(=O)[C@H](CCCNC(=N)N)NC(=O)[C@H](CCCCN)NC(=O)[C@H](CCCCN)NC(=O)[C@H](CCCNC(=N)N)NC(=O)CNC(=O)[C@H](Cc1ccc(O)cc1)NC(C)=O)C(=O)N[C@@H](CCC(N)=O)C(=O)N[C@]1(C)CCCCCCC=CCCC[C@@](C)(C(=O)N[C@@H](CCCNC(=N)N)C(=O)N[C@@H](CCCCN)C(=O)N[C@@H](CCCNC(=N)N)C(N)=O)NC(=O)[C@H](CCCCN)NC(=O)[C@H](CCC(=O)O)NC(=O)[C@H](C(C)C)NC(=O)[C@H](CC(=O)O)NC(=O)[C@H](CCC(=O)O)NC(=O)[C@H](CCC(N)=O)NC1=O
The molecule B2 displayed a Kd in test [2] of 311 µM.
